Results published in PMC10492824.

Legend:
[1] = biological target: Zn-containing form of the soluble domain of the Rieske-type iron-sulfur protein PetA from Thermochromatium tepidum (Thermochromatium tepidum); assay: SEC; purification step after removal of the His-tag; HiLoad 16/60 Superdex 75 in buffer A (10 mM Tris-HCl pH 7.6, 150 mM NaCl); masses estimated with low molecular weight marker mixture
[2] = biological target: Zn-containing form of the soluble domain of the Rieske-type iron-sulfur protein PetA from Thermochromatium tepidum (Thermochromatium tepidum); assay: SEC-MALS; Superdex 200 Increase 10/300 GL, buffer A, 0.5 mL/min, 24 °C; about 100 µL of 7.3 mg/mL protein (first colorless SEC fraction) injected

stoichiometry N [1]: 2 | stoichiometry N [2]: 2
Substance: Zn-containing form of the soluble domain of the Rieske-type iron-sulfur protein PetA from Thermochromatium tepidum (domain or fragment)
